# Test results from the supplement of paper PMC9233669.
# This sample holds only a part of the variants without activity.
# Columns and labels:
# biotinyl-Phe-oxazolone = test: self-aminoacylation, catalytic enhancement (BFO) (fold over background); higher = more active; k-Seq, kA / k0A0; sequences stand for … in GGGAAUGGAUCCACAUCUACGAAUUC…UUCACUGCAGACUUGACGAAGCUG
# Method in brief: (§1)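 Mutagenized RNA pools (0.43 μM; 21-nt variable region) were treated with 2–1250 μM of each biotinyl-aminoacyl-oxazolone. Conditions were 50 μL HEPES/NaCl/KCl/MgCl2/CaCl2 buffer, 5% acetonitrile, pH 6.9–7.0, room temperature, 90 minutes. Catalytic enhancement, the median kA relative to the uncatalyzed rate, was derived from streptavidin capture, qPCR and Illumina sequencing.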
# biotinyl-Ile-oxazolone = test: self-aminoacylation, catalytic enhancement (BIO) (fold over background); higher = more active; k-Seq, kA / k0A0; sequences stand for … in GGGAAUGGAUCCACAUCUACGAAUUC…UUCACUGCAGACUUGACGAAGCUG
# Method in brief: as §1
# biotinyl-Met-oxazolone = test: self-aminoacylation, catalytic enhancement (BMO) (fold over background); higher = more active; k-Seq, kA / k0A0; sequences stand for … in GGGAAUGGAUCCACAUCUACGAAUUC…UUCACUGCAGACUUGACGAAGCUG
# Method in brief: as §1
# biotinyl-Val-oxazolone = test: self-aminoacylation, catalytic enhancement (BVO) (fold over background); higher = more active; k-Seq, kA / k0A0; sequences stand for … in GGGAAUGGAUCCACAUCUACGAAUUC…UUCACUGCAGACUUGACGAAGCUG
# Method in brief: as §1
# biotinyl-Leu-oxazolone = test: self-aminoacylation, catalytic enhancement (BLO) (fold over background); higher = more active; k-Seq, kA / k0A0; sequences stand for … in GGGAAUGGAUCCACAUCUACGAAUUC…UUCACUGCAGACUUGACGAAGCUG
# Method in brief: as §1
# biotinyl-Trp-oxazolone = test: self-aminoacylation, catalytic enhancement (BWO) (fold over background); higher = more active; k-Seq, kA / k0A0; sequences stand for … in GGGAAUGGAUCCACAUCUACGAAUUC…UUCACUGCAGACUUGACGAAGCUG
# Method in brief: as §1
Sequence,self-aminoacylation (biotinyl-Phe-oxazolone),self-aminoacylation (biotinyl-Ile-oxazolone),self-aminoacylation (biotinyl-Met-oxazolone),self-aminoacylation (biotinyl-Val-oxazolone),self-aminoacylation (biotinyl-Leu-oxazolone),self-aminoacylation (biotinyl-Trp-oxazolone)
AUUCACCUUGGUCAUCGGGUC [Fam2.2 aminoacylation ribozyme variant],4.87,1.2,1.32,1.58,1.15,1.28
AUUACCCUGGUCAUCGAGUCG [Fam2.1 aminoacylation ribozyme variant],0.759,0.765,0.797,0.976,0.794,0.725
AAGUUUGUUAAUAUUCGCAAG [Fam3.1 aminoacylation ribozyme variant],1.17,1.55,1.15,1.43,1.45,1.41
AUUCACCAAGGUCAUCGGGUU [Fam2.2 aminoacylation ribozyme variant],17.2,2.42,2.43,2.59,2.21,4.16
AUUACCCUGCUCAUUGAGUGA [Fam2.1 aminoacylation ribozyme variant],19.1,2.27,4.57,2.39,4.39,5.58
CCAGACUUCAAGCAAUCGUUC [Fam1B.1 aminoacylation ribozyme variant],1.08,1.06,0.78,0.849,0.764,0.853
CAACACUUCAAGCAAUUGGUC [Fam1B.1 aminoacylation ribozyme variant],1.42,0.98,0.866,0.904,0.775,0.958
AUACACCUAGGUCAGCGGGUG [Fam2.2 aminoacylation ribozyme variant],15.5,2.29,3.8,2.15,3.49,3.08
CUGCUGCAAACAAUCGGUCUG [Fam1A.1 aminoacylation ribozyme variant],1.81,1.05,0.995,1.07,1.31,1.53
CUAGUUCAAAAAAUCGGUCUG [Fam1A.1 aminoacylation ribozyme variant],2.72,0.934,0.842,0.752,0.838,2.08
AUACUUCAAACCAUCGGUCUG [Fam1A.1 aminoacylation ribozyme variant],0.887,1.1,0.774,0.917,0.902,1.07
CUACUUCAAACAAUCUAUCUG [Fam1A.1 aminoacylation ribozyme variant],0.981,0.507,0.461,0.579,0.485,0.474
AAGUUUGCUAAUCGUCGCACG [Fam3.1 aminoacylation ribozyme variant],0.692,0.983,0.842,0.873,1.16,0.937
CCACAUUUCCAGCAAUCGGUC [Fam1B.1 aminoacylation ribozyme variant],1.26,2.12,1.64,2.04,2.15,1.23
AAGUUAGCUUAUAGUCGCAAG [Fam3.1 aminoacylation ribozyme variant],2.88,1.8,1.43,1.56,1.48,1.9
AUUCCCCUUGUCAUCGAGUGA [Fam2.1 aminoacylation ribozyme variant],70.6,6.44,11.1,7.45,11.4,14.9
AUUACCCUGGUCAUUGCGUGA [Fam2.1 aminoacylation ribozyme variant],108,6.44,15.8,7.31,18.1,17.1
CCACACUUUGAGCAAUCGGUC [Fam1B.1 aminoacylation ribozyme variant],0.83,1.05,0.858,1.06,0.96,0.721
CUACUGCAAACAAUCGAUCUG [Fam1A.1 aminoacylation ribozyme variant],0.699,0.705,0.937,0.732,0.663,0.679
CCUCACUUCAAGCAAUCGAUC [Fam1B.1 aminoacylation ribozyme variant],1.71,0.494,0.482,0.691,0.453,0.672
CUACUUCAAACAUUCGGUCAG [Fam1A.1 aminoacylation ribozyme variant],0.674,0.901,0.886,0.992,0.861,0.688
GUACUUCACACAAUCGGUCUG [Fam1A.1 aminoacylation ribozyme variant],1.5,1.34,1.02,1.3,1.11,1.67
CCGCACUUCAAGCAAUCGGCC [Fam1B.1 aminoacylation ribozyme variant],6.69,1.97,1.71,3.21,1.61,6.53
AUUACCCUUGUCACCGAGUGA [Fam2.1 aminoacylation ribozyme variant],50.2,4.01,8.49,4.31,9.28,11.1
CCACACUUCAAGCAAUCGCCC [Fam1B.1 aminoacylation ribozyme variant],0.498,0.996,1.33,2.32,2,1.58
AUUACGCUGGACAUCGAGUGA [Fam2.1 aminoacylation ribozyme variant],16.1,2.63,4.42,2.98,4.51,4.65
